Ends that are not written are not given here. * marks the point of attachment. C16 diacid = O=C(O)CCCCCCCCCCCCCCC(=O)*; Palmitoyl = CCCCCCCCCCCCCCCC(=O)*; Myristoyl = CCCCCCCCCCCCCC(=O)*; Lauroyl = CCCCCCCCCCCC(=O)*
T1: human GIP receptor (human, UniProt P48546 22-466)
T1 construct: whole, on cells; also called hGIPR
T1 sequence (looked up): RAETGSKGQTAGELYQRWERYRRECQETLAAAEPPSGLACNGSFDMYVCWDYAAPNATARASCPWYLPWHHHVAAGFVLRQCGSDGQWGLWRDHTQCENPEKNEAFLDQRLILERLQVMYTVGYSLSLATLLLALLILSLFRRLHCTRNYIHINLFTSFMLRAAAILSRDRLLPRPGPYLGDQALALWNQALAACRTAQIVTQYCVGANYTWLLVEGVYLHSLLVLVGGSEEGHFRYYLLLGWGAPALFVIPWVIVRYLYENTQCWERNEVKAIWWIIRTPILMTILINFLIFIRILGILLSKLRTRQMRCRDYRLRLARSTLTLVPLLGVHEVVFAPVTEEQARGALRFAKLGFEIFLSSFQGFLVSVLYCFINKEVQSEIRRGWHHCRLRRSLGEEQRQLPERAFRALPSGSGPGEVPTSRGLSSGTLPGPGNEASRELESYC

B1: AT122 [hGIP(5-30)NH2-C14/16] (peptide)
peptide: TFISDYSIAMDK(Myristoyl)IHQQDFVNWLLAQK-NH2
modifications: N-terminus assumed
SMILES: CCCCCCCCCCCCCC(=O)NCCCC[C@H](NC(=O)[C@H](CC(=O)O)NC(=O)[C@H](CCSC)NC(=O)[C@H](C)NC(=O)[C@@H](NC(=O)[C@H](CO)NC(=O)[C@H](Cc1ccc(O)cc1)NC(=O)[C@H](CC(=O)O)NC(=O)[C@H](CO)NC(=O)[C@@H](NC(=O)[C@H](Cc1ccccc1)NC(=O)[C@@H](N)[C@@H](C)O)[C@@H](C)CC)[C@@H](C)CC)C(=O)N[C@H](C(=O)N[C@@H](Cc1c[nH]cn1)C(=O)N[C@@H](CCC(N)=O)C(=O)N[C@@H](CCC(N)=O)C(=O)N[C@@H](CC(=O)O)C(=O)N[C@@H](Cc1ccccc1)C(=O)N[C@H](C(=O)N[C@@H](CC(N)=O)C(=O)N[C@@H](Cc1c[nH]c2ccccc12)C(=O)N[C@@H](CC(C)C)C(=O)N[C@@H](CC(C)C)C(=O)N[C@@H](C)C(=O)N[C@@H](CCC(N)=O)C(=O)N[C@@H](CCCCN)C(N)=O)C(C)C)[C@@H](C)CC
B2: AT119 [hGIP(5-30)NH2-C12/16] (peptide)
peptide: TFISDYSIAMDK(Lauroyl)IHQQDFVNWLLAQK-NH2
modifications: N-terminus assumed
SMILES: CCCCCCCCCCCC(=O)NCCCC[C@H](NC(=O)[C@H](CC(=O)O)NC(=O)[C@H](CCSC)NC(=O)[C@H](C)NC(=O)[C@@H](NC(=O)[C@H](CO)NC(=O)[C@H](Cc1ccc(O)cc1)NC(=O)[C@H](CC(=O)O)NC(=O)[C@H](CO)NC(=O)[C@@H](NC(=O)[C@H](Cc1ccccc1)NC(=O)[C@@H](N)[C@@H](C)O)[C@@H](C)CC)[C@@H](C)CC)C(=O)N[C@H](C(=O)N[C@@H](Cc1c[nH]cn1)C(=O)N[C@@H](CCC(N)=O)C(=O)N[C@@H](CCC(N)=O)C(=O)N[C@@H](CC(=O)O)C(=O)N[C@@H](Cc1ccccc1)C(=O)N[C@H](C(=O)N[C@@H](CC(N)=O)C(=O)N[C@@H](Cc1c[nH]c2ccccc12)C(=O)N[C@@H](CC(C)C)C(=O)N[C@@H](CC(C)C)C(=O)N[C@@H](C)C(=O)N[C@@H](CCC(N)=O)C(=O)N[C@@H](CCCCN)C(N)=O)C(C)C)[C@@H](C)CC
B3: AT121 [hGIP(5-30)NH2-C14/5] (peptide)
peptide: Myristoyl-TFISDYSIAMDKIHQQDFVNWLLAQK-NH2
SMILES: CCCCCCCCCCCCCC(=O)N[C@H](C(=O)N[C@@H](Cc1ccccc1)C(=O)N[C@H](C(=O)N[C@@H](CO)C(=O)N[C@@H](CC(=O)O)C(=O)N[C@@H](Cc1ccc(O)cc1)C(=O)N[C@@H](CO)C(=O)N[C@H](C(=O)N[C@@H](C)C(=O)N[C@@H](CCSC)C(=O)N[C@@H](CC(=O)O)C(=O)N[C@@H](CCCCN)C(=O)N[C@H](C(=O)N[C@@H](Cc1c[nH]cn1)C(=O)N[C@@H](CCC(N)=O)C(=O)N[C@@H](CCC(N)=O)C(=O)N[C@@H](CC(=O)O)C(=O)N[C@@H](Cc1ccccc1)C(=O)N[C@H](C(=O)N[C@@H](CC(N)=O)C(=O)N[C@@H](Cc1c[nH]c2ccccc12)C(=O)N[C@@H](CC(C)C)C(=O)N[C@@H](CC(C)C)C(=O)N[C@@H](C)C(=O)N[C@@H](CCC(N)=O)C(=O)N[C@@H](CCCCN)C(N)=O)C(C)C)[C@@H](C)CC)[C@@H](C)CC)[C@@H](C)CC)[C@@H](C)O
B4: AT124 [hGIP(5-30)NH2-C16/5] (peptide)
peptide: Palmitoyl-TFISDYSIAMDKIHQQDFVNWLLAQK-NH2
SMILES: CCCCCCCCCCCCCCCC(=O)N[C@H](C(=O)N[C@@H](Cc1ccccc1)C(=O)N[C@H](C(=O)N[C@@H](CO)C(=O)N[C@@H](CC(=O)O)C(=O)N[C@@H](Cc1ccc(O)cc1)C(=O)N[C@@H](CO)C(=O)N[C@H](C(=O)N[C@@H](C)C(=O)N[C@@H](CCSC)C(=O)N[C@@H](CC(=O)O)C(=O)N[C@@H](CCCCN)C(=O)N[C@H](C(=O)N[C@@H](Cc1c[nH]cn1)C(=O)N[C@@H](CCC(N)=O)C(=O)N[C@@H](CCC(N)=O)C(=O)N[C@@H](CC(=O)O)C(=O)N[C@@H](Cc1ccccc1)C(=O)N[C@H](C(=O)N[C@@H](CC(N)=O)C(=O)N[C@@H](Cc1c[nH]c2ccccc12)C(=O)N[C@@H](CC(C)C)C(=O)N[C@@H](CC(C)C)C(=O)N[C@@H](C)C(=O)N[C@@H](CCC(N)=O)C(=O)N[C@@H](CCCCN)C(N)=O)C(C)C)[C@@H](C)CC)[C@@H](C)CC)[C@@H](C)CC)[C@@H](C)O
B5: AT169 [hGIP(5-30)NH2[I7K]-C16diacid/7] (peptide)
peptide: TFK(C16 diacid)SDYSIAMDKIHQQDFVNWLLAQK-NH2
modifications: N-terminus assumed
SMILES: CC[C@H](C)[C@H](NC(=O)[C@H](CO)NC(=O)[C@H](Cc1ccc(O)cc1)NC(=O)[C@H](CC(=O)O)NC(=O)[C@H](CO)NC(=O)[C@H](CCCCNC(=O)CCCCCCCCCCCCCCC(=O)O)NC(=O)[C@H](Cc1ccccc1)NC(=O)[C@@H](N)[C@@H](C)O)C(=O)N[C@@H](C)C(=O)N[C@@H](CCSC)C(=O)N[C@@H](CC(=O)O)C(=O)N[C@@H](CCCCN)C(=O)N[C@H](C(=O)N[C@@H](Cc1c[nH]cn1)C(=O)N[C@@H](CCC(N)=O)C(=O)N[C@@H](CCC(N)=O)C(=O)N[C@@H](CC(=O)O)C(=O)N[C@@H](Cc1ccccc1)C(=O)N[C@H](C(=O)N[C@@H](CC(N)=O)C(=O)N[C@@H](Cc1c[nH]c2ccccc12)C(=O)N[C@@H](CC(C)C)C(=O)N[C@@H](CC(C)C)C(=O)N[C@@H](C)C(=O)N[C@@H](CCC(N)=O)C(=O)N[C@@H](CCCCN)C(N)=O)C(C)C)[C@@H](C)CC
B6: AT170 [hGIP(5-30)NH2[S8K]-C16diacid/8] (peptide)
peptide: TFIK(C16 diacid)DYSIAMDKIHQQDFVNWLLAQK-NH2
modifications: N-terminus assumed
SMILES: CC[C@H](C)[C@H](NC(=O)[C@H](CO)NC(=O)[C@H](Cc1ccc(O)cc1)NC(=O)[C@H](CC(=O)O)NC(=O)[C@H](CCCCNC(=O)CCCCCCCCCCCCCCC(=O)O)NC(=O)[C@@H](NC(=O)[C@H](Cc1ccccc1)NC(=O)[C@@H](N)[C@@H](C)O)[C@@H](C)CC)C(=O)N[C@@H](C)C(=O)N[C@@H](CCSC)C(=O)N[C@@H](CC(=O)O)C(=O)N[C@@H](CCCCN)C(=O)N[C@H](C(=O)N[C@@H](Cc1c[nH]cn1)C(=O)N[C@@H](CCC(N)=O)C(=O)N[C@@H](CCC(N)=O)C(=O)N[C@@H](CC(=O)O)C(=O)N[C@@H](Cc1ccccc1)C(=O)N[C@H](C(=O)N[C@@H](CC(N)=O)C(=O)N[C@@H](Cc1c[nH]c2ccccc12)C(=O)N[C@@H](CC(C)C)C(=O)N[C@@H](CC(C)C)C(=O)N[C@@H](C)C(=O)N[C@@H](CCC(N)=O)C(=O)N[C@@H](CCCCN)C(N)=O)C(C)C)[C@@H](C)CC

molecular target: T1, human GIP receptor; assay: IC50 with 2% HSA over IC50 with 0.1% casein, 125I-hGIP competition, COS-7/hGIPR
Method: (§1) After incubation, the cells were washed twice in ice-cold binding buffer (+/−2% HSA) and lysed using 200 mM NaOH with 1% SDS for 30 min. Nonspecific binding was determined as the binding of radioactive ligand to untransfected cells.

Question: B1 was tested. Which “Fold change HSA (2%)/Casein (0.1%)” value did it give?
Answer: 4.9 fold

Question: With B2 as the binder, how does the “Fold change HSA (2%)/Casein (0.1%)” value read?
Answer: 7.2 fold

Question: For B3, which “Fold change HSA (2%)/Casein (0.1%)” value is on record?
Answer: 5.7 fold

Question: Which “Fold change HSA (2%)/Casein (0.1%)” value does the source give for B4 here?
Answer: 5.2 fold

Question: TKISDYSIAMDKIHQQDFVNWLLAQK (C16-diacid fatty acyl on Lys 6 (GIP numbering); C-terminal amide) [AT168 [hGIP(5-30)NH2[F6K]-C16diacid/6]] was tested. Which “Fold change HSA (2%)/Casein (0.1%)” value did it give?
Answer: 2 fold

Question: How did the “Fold change HSA (2%)/Casein (0.1%)” value turn out when B5 was run?
Answer: 5.8 fold

Question: How did the “Fold change HSA (2%)/Casein (0.1%)” value turn out when B6 was run?
Answer: 2.2 fold

molecular target: T1, human GIP receptor; assay: 125I-hGIP competition binding, COS-7/hGIPR, 2% HSA;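 further: nonspecific binding defined as radioligand binding to untransfected cells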
Method: as §1

Question: For B1, which IC50 is on record?
Answer: 6080 nM

Question: What about the logIC50 of the same binder?
Answer: -5.2 log M

Question: Which IC50 does the source give for B2 here?
Answer: 2660 nM

Question: What about the logIC50 of the same binder?
Answer: -5.6 log M

Question: Which results are given for B3?
Answer: IC50: 966 nM; logIC50: -6 log M

Question: B4 was tested. Which IC50 did it give?
Answer: 8240 nM

Question: What about the logIC50 of the same binder?
Answer: -5.1 log M

Question: Which IC50 does the source give for TKISDYSIAMDKIHQQDFVNWLLAQK (C16-diacid fatty acyl on Lys 6 (GIP numbering); C-terminal amide) [AT168 [hGIP(5-30)NH2[F6K]-C16diacid/6]] here?
Answer: 100 nM

Question: What about the logIC50 of the same binder?
Answer: -7 log M

Question: With B5 as the binder, how does the IC50 read?
Answer: 166 nM

Question: What about the logIC50 of the same binder?
Answer: -6.8 log M

Question: Which results are given for B6?
Answer: IC50: 1380 nM; logIC50: -5.9 log M

molecular target: T1, human GIP receptor; assay: cell-based or functional assay

Question: What does the source list for TKISDYSIAMDKIHQQDFVNWLLAQK (C16-diacid fatty acyl on Lys 6 (GIP numbering); C-terminal amide) [AT168 [hGIP(5-30)NH2[F6K]-C16diacid/6]]?
Answer: cAMP agonism, Emax: 0; cAMP antagonism: 96 nM; cAMP antagonism, log: -7 log M

Question: How did the “cAMP agonism, Emax” value turn out when B5 was run?
Answer: 0

Question: What about the “cAMP antagonism” value of the same binder?
Answer: 37 nM

Question: What about the “cAMP antagonism, log” value of the same binder?
Answer: -7.4 log M

Question: For B6, which “cAMP agonism, Emax” value is on record?
Answer: 0

Question: What about the “cAMP antagonism” value of the same binder?
Answer: 507 nM

Question: And the “cAMP antagonism, log” value?
Answer: -6.3 log M

molecular target: T1, human GIP receptor; assay: 125I-hGIP competition binding, COS-7/hGIPR, 0.1% casein;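 further: nonspecific binding defined as radioligand binding measured on untransfected cells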
Method: as §1

Question: Which IC50 does the source give for B1 here?
Answer: 1230 nM

Question: And the logIC50?
Answer: -5.9 log M

Question: For B2, which IC50 is on record?
Answer: 369 nM

Question: And the logIC50?
Answer: -6.4 log M

Question: What does the source list for B3?
Answer: IC50: 170 nM; logIC50: -6.8 log M

Question: What does the source list for B4?
Answer: IC50: 1590 nM; logIC50: -5.8 log M

Question: How did the IC50 turn out when TKISDYSIAMDKIHQQDFVNWLLAQK (C16-diacid fatty acyl on Lys 6 (GIP numbering); C-terminal amide) [AT168 [hGIP(5-30)NH2[F6K]-C16diacid/6]] was run?
Answer: 50.1 nM

Question: And the logIC50?
Answer: -7.3 log M

Question: Which IC50 does the source give for B5 here?
Answer: 28.8 nM

Question: And the logIC50?
Answer: -7.5 log M

Question: What does the source list for B6?
Answer: IC50: 631 nM; logIC50: -6.2 log M

molecular target: T1, human GIP receptor; assay: 125I-hGIP competition binding, COS-7 cells expressing hGIPR;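 further: nonspecific binding taken as radioligand bound by untransfected cells, binding buffer with or without 2% HSA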
Method: as §1

Question: How did the IC50 turn out when B1 was run?
Answer: 591 nM

Question: And the “log IC50” value?
Answer: -6.2 log M

Question: What does the source list for B2?
Answer: IC50: 194 nM; log IC50: -6.7 log M

Question: Which IC50 does the source give for B3 here?
Answer: 173 nM

Question: What about the “log IC50” value of the same binder?
Answer: -6.8 log M

Question: For B4, which IC50 is on record?
Answer: 361 nM

Question: What about the “log IC50” value of the same binder?
Answer: -6.4 log M

Question: What does the source list for TKISDYSIAMDKIHQQDFVNWLLAQK (C16-diacid fatty acyl on Lys 6 (GIP numbering); C-terminal amide) [AT168 [hGIP(5-30)NH2[F6K]-C16diacid/6]]?
Answer: IC50: 48 nM; log IC50: -7.3 log M

Question: With B5 as the binder, how does the IC50 read?
Answer: 28 nM

Question: And the “log IC50” value?
Answer: -7.5 log M

Question: With B6 as the binder, how does the IC50 read?
Answer: 628 nM

Question: And the “log IC50” value?
Answer: -6.2 log M

From US20200087373A1 (UNIVERSITY OF COPENHAGEN, published 2020)
